Reference: patent US8956838B2, “Carboxyl esterase polypeptides” (B.R.A.I.N., priority 2006, dated 2015)

What was measured:
Type in all cases: biochemical
[1] = Titration assay with vinyl acid esters; conditions: 10 mM, 37° C., pH 7.0
Procedure: (§1) Enzyme activities on the substrates triacetin, tripropionin, tributyrin, tricaprylene, trilaurin and vinyl-substrates (vinyl-acetate, ˜propionate, ˜butyrate, ˜caproate, ˜caprylate and ˜laurate) were determined using a standard titration assay with minor modifications. Tests were performed with a Methrom 718 STAT potentiometric titrator (Herisau, Switzerland) and by using 10 mM NaOH for titration. The substrates at 10 mM concentration were emulsified in 20 ml reaction buffer containing 2 mM Tris/HCl pH 7.0. After addition of 7.5 μg of the purified enzyme the NaOH consumption was recorded at a reaction temperature of 37° C. One unit was defined as the amount of enzyme that released […] of fatty acid per min.

[2] = Determination of thermal stability
Procedure: To assay the thermostability of the enzymes they were incubated at different temperatures for one hour and the residual activity assayed at 10 minute intervals. Residual activity was measured using pNP-caproate as substrate as described above.

[3] = Substrate specificity on pNP-substrates with importance for pharmaceutical products; conditions: 30 minute, 40° C., pH 7.5
Procedure: The substrate range of the two enzymes was determined using pNP esters of the following: benzoate, 2-(4-isobutylphenyl)propanoate (Ibuprofen), 2-phenylpropanoate, 3-phenylbutanoate, cyclohexanoate, 2-(3-benzoylphenyl)propanoate, 2-naphthoate, 1-naphthoate, adamantanoate and 2-(6-methoxynaphthalene-2-yl)propanoate (Naproxen). Activity was determined at 410 nm after 30 minute incubation at 40° C. The reaction mixture was 950 μl buffer (100 mM Tris, pH 7.5), 50 μl substrate (5 mg/ml in DMSO) and 1 μg enzyme.

[4] = Enzyme activity with pNP-acylesters of different chain length; conditions: 4 mM, 45° C., pH 7.2
Procedure: Enzyme activity tests were performed by incubating the enzyme with 4 mM substrate at 45° C. in 100 mM Tris-HCl buffer at pH 7.2, unless otherwise indicated. The reaction was measured at 410 nm. One unit is defined as the amount of enzyme catalyzing the appearance of 1 μmol of free p-nitrophenol/min. Enzyme activity against pNP-acylesters (butyrate, valerate, caproate, octanoate, decanoate and palmitate) was tested under the above conditions. […] The enzyme according to SEQ ID NO: 6 converted pNP-caproate with a specific activity of 80.0 U/mg.

[5] = Determination of pH optimum by titration; conditions: incubation for up to 48 hours, up to pH 12 (data not shown)
Procedure: The pH optimum for the enzymes was determined using tributyrin as substrate. The incubation conditions were 20 ml buffer (2.5 mM phosphate buffer [pH 4-7], 2.5 mM Tris/HCl buffer [pH 7-11] or 2.5 mM glycine buffer [pH 9-11], supplemented with 100 mM NaCl) stirred at a constant temperature of 37° C. The esterase substrate tributyrin (final concentration of 2 mM) was added to 5 ml of the corresponding buffer at 37° C., emulsified and added to the whole preparation. This substrate emulsion was held constant at the correct pH automatically by the titrator (718 STAT Titrino; Metrohm, Herisau, Switzerland) for 2 min and this served as the control. […]

[6] = Solvent stability, residual activity; conditions: for Residual activity after 1 h incubation in the presence of solvent: 1 h at 30° C., measured at 45° C.; for activity in the presence of solvent, levels up to: both concentrations (15% and 30% v/v)
Procedure: The stability of the enzymes was determined in the presence of the following solvents: DMSO, isopropanol, methanol, dimethylformamide, acetone and acetonitrile. The enzymes were incubated for 1 hour at 30° C. in the presence of either 15% (v/v) or 30% (v/v) of the solvents and the residual activity was measured at 45° C. The substrate used was pNP-butyrate.

[7] = Titration assay with triglycerides; conditions: 10 mM, 37° C., pH 7.0
Procedure: as §1

B1: EstA3: recombinant enzyme having carboxyl esterase activity, amino acid sequence SEQ ID NO: 2, family VIII of bacterial lipolytic enzymes (protein)
chain: MSAEELGFLPDRLARISDHIQTNYLDNGKLPFASLLIGRGDDIALQWSSGVADDAIFRIASMTKPVTSVAFMQLVEQGKVALTDPVAKYIPEFAKLGVFVAGGGNIPFVSRPPTMPMRIVDVLRHTTGFTYSFQERSNIDAAYRKTDVESWTRSTSQSFIDTLAEIPLEFDPGTQWNYSVSTDVLGILIERISGQSLPDYFRDHIFAPLGMVDTCFTVPADKAARIPQCFAFDPATKMKLFDEAGASSLWTKGWSFNSGGGGLASSVADYHRFCRMLLNGGALDGIQIISPKTLELMTANHLPGGQDLTQMSKSLFSEAEMAGIGFGLGFATTIDSVATLTPCSTGDFYWGGMYSTAFFVDPVEDIIMIFMTQLMPSSTYPVRREIKTMIYSALAA
modifications: metagenomic sequence
specific activity ([1]; substrate vinyl acetate (C2)): 107.5 U/mg
specific activity ([1]; substrate vinyl butyrate (C4)): 387.5 U/mg
specific activity ([1]; substrate vinyl caproate (C6)): 237.5 U/mg
specific activity ([1]; substrate vinyl caprylate (C8)): 155.0 U/mg
specific activity ([1]; substrate vinyl laurinate (C12)): 7.5 U/mg
specific activity ([1]; substrate vinyl propionate (C3)): 380.0 U/mg
thermal stability, in words ([2]; incubated for at least 60 minutes at 40° C.): without a major loss of activity
thermal stability, in words ([2]; incubation at temperatures above 45° C. for more than 60 minutes (data not shown)): rapid inactivation
specific activity ([3]; pNP-ester of 1-naphthoate): 0 U/mg
specific activity ([3]; pNP-ester of 2-(3-benzoylphenyl) propanoate): 26.7 U/mg
specific activity ([3]; pNP-ester of 2-(4-isobutylphenyl) propanoate (Ibuprofen)): 7.2 U/mg
specific activity ([3]; pNP-ester of 2-(6-methoxy-naphthalen-2-yl) propanoate (Naproxen)): 26.7 U/mg
specific activity ([3]; pNP-ester of 2-naphthoate): 0 U/mg
specific activity ([3]; pNP-ester of 2-phenylpropanoate): 21.0 U/mg
specific activity ([3]; pNP-ester of 3-phenylbutanoate): 31.6 U/mg
specific activity ([3]; pNP-ester of adamantanoate): 0 U/mg
specific activity ([3]; pNP-ester of benzoate): 9.4 U/mg
specific activity ([3]; pNP-ester of cyclohexanoate): 50.0 U/mg
specific activity ([4]; substrate pNP-butyrate (C4)): 513.6 U/mg
specific activity ([4]; substrate pNP-caproate (C6)): 425.7 U/mg
specific activity ([4]; substrate pNP-decanoate (C10)): 0 U/mg
specific activity ([4]; substrate pNP-octanoate (C8)): 3.6 U/mg
specific activity ([4]; substrate pNP-palmitate (C16)): 0 U/mg
specific activity ([4]; substrate pNP-valerate (C5)): 425.7 U/mg
stability under alkaline conditions, in words [5]: extremely stable with little loss of activity
Residual activity after 1 h incubation in the presence of solvent ([6]; 15% (v/v) Acetone): 152%
Residual activity after 1 h incubation in the presence of solvent ([6]; 15% (v/v) Acetonitrile): 110%
Residual activity after 1 h incubation in the presence of solvent ([6]; 15% (v/v) DMSO): 102%
Residual activity after 1 h incubation in the presence of solvent ([6]; 15% (v/v) Dimethylformamid): 125%
Residual activity after 1 h incubation in the presence of solvent ([6]; 15% (v/v) Isopropanol): 155%
Residual activity after 1 h incubation in the presence of solvent ([6]; 15% (v/v) Methanol): 111%
Residual activity after 1 h incubation in the presence of solvent ([6]; 30% (v/v) Acetone): 155%
Residual activity after 1 h incubation in the presence of solvent ([6]; 30% (v/v) Acetonitrile): 87%
Residual activity after 1 h incubation in the presence of solvent ([6]; 30% (v/v) DMSO): 104%
Residual activity after 1 h incubation in the presence of solvent ([6]; 30% (v/v) Dimethylformamid): 128%
Residual activity after 1 h incubation in the presence of solvent ([6]; 30% (v/v) Isopropanol): 117%
Residual activity after 1 h incubation in the presence of solvent ([6]; 30% (v/v) Methanol): 130%
activity in the presence of solvent, levels up to ([6]; acetone): ≤ 155%
activity in the presence of solvent, levels up to ([6]; dimethylformamide): up to 128%
specific activity ([7]; substrate triacetin (C2)): 147.5 U/mg
specific activity ([7]; substrate tributyrin (C4)): 167.5 U/mg
